Laboratory results taken from patent US12697350B2, “Methods and compositions for treating a premature termination codon-mediated disorder” (Tevard Biosciences, Inc., priority 2019, dated 2026).
Entries after “also recorded” stand apart in the source; their conditions may differ.

Test system: mouse SCN1A with an Arg(R)-to-TGA PTC (R1407X) and 3×FLAG tag
Test: Rescue of full-length SCN1A protein expression, anti-FLAG Western blot, Flp-In-293 cells (FIGS. 37-39)
Format: cell-based, human
Excerpt: FIG. 37A is a Western blot depicting rescue of full-length SCN1A protein expression by a suppressor tRNA. Flp-In-293 cells were transfected with an expression construct containing mouse SCN1A with an Arg(R)-to-TGA PTC (R1407X) and a 3×FLAG tag peptide (DYKDHD-G-DYKDHD-I-DYKDDDDK) at the C-terminus (SEQ ID NO: 899) (“SCN1a (R1407*)”) and either (i) co-transfected with an expression construct containing the ArgTCA suppressor tRNA #115 (SEQ ID NO: 18) (“Arg>TGA #115”), or (ii) treated with ataluren at the indicated concentration, (iii) treated with gentamicin at the indication concentration, or (iv) treated with G418 at the indicated concentration. “SCN1a (w.t.)” indicates cells transfected with an expression construct containing wild-type mouse SCN1A and a 3×FLAG tag peptide at the C-terminus (SEQ ID NO: 898). Protein was isolated at 24 hours post transfection and SCN1A was detected using a monoclonal anti-FLAG M2 antibody. Molecular weights based on protein molecular weight markers are indicated to the left of the gel. The intensity of bands corresponding to the size of full-length SCN1A protein was measured using ImageJ and all intensity values were normalized to wild-type SCN1A protein (“SCN1a (w.t.)” lane). Cells co-transfected with expression vectors containing mutant SCN1A and the ArgTCA suppressor tRNA expressed greater than 70% of the full-length SCN1A expressed by cells transfected with an expression construct containing wild-type SCN1A.
FIG. 38A is a Western blot depicting rescue of full-length SCN1A protein expression by suppressor tRNAs. Flp-In-293 cells were co-transfected with (i) an expression construct containing mouse SCN1A with an Arginine-to-TGA PTC (R1407X) and a 3×FLAG tag peptide (DYKDHD-G-DYKDHD-I-DYKDDDDK) at the C-terminus (SEQ ID NO: 899) (“SCN1a (R1407*)”) and (ii) either the #104 ArgTCA suppressor tRNA (SEQ ID NO: 6) (“Sup #104”), the #106 ArgTCA suppressor tRNA (SEQ ID NO: 8) (“Sup #106”), or the ArgTCA suppressor tRNA #115 (SEQ ID NO: 18) (“Sup #115”). “SCN1a (w.t.)” indicates cells transfected with an expression construct containing wild-type mouse SCN1A and a 3×FLAG tag peptide at the C-terminus (SEQ ID NO: 898). Protein was isolated at 24 hours post transfection and SCN1A was detected using a monoclonal anti-FLAG M2 antibody. Molecular weights based on protein molecular weight markers are indicated to the left of the gel. The intensity of bands corresponding to the size of full-length SCN1A protein was measured using ImageJ and all intensity values were normalized to wild-type SCN1A protein (“SCN1a (w.t.)” lane). Cells co-transfected with expression vectors containing mutant SCN1A and the ArgTCA suppressor tRNA expressed greater than 30% (Sup #104), greater than 60% (Sup #106), or greater than 70% (Sup #115) of the full-length SCN1A expressed by cells transfected with an expression construct containing wild-type SCN1A.
FIG. 39A is a Western blot depicting rescue of full-length SCN1A protein expression by a suppressor tRNA. Flp-In-293 cells were cultured in 6-well cell culture plates and co-transfected with (i) an expression construct containing mouse SCN1A with an Arginine-to-TGA PTC (R1407X) and a 3×FLAG tag peptide (DYKDHD-G-DYKDHD-I-DYKDDDDK) at the C-terminus (SEQ ID NO: 899) (“SCN1a (R1407*)”) and (ii) the ArgTCA suppressor tRNA #115 (SEQ ID NO: 18) (“Arg>TGA #115”) at the indicated concentrations. 1× indicates 400 ng of the ArgTCA suppressor tRNA construct per well, 0.3× indicates 133 ng of the ArgTCA suppressor tRNA construct per well, 0.1× indicates 40 ng of the ArgTCA suppressor tRNA construct per well, and 0.03× indicates 13 ng of the ArgTCA suppressor tRNA construct per well. “SCN1a (w.t.)” indicates cells transfected with an expression construct containing wild-type mouse SCN1A and a 3×FLAG tag peptide at the C-terminus (SEQ ID NO: 898). Protein was isolated at 24 hours post transfection and SCN1A was detected using a monoclonal anti-FLAG M2 antibody. […]

B1: tRNA-Arg-TCT-2-1-TCA-SUP_no intron (nucleic acid)
chain: GGCTCCGTGGCGCAATGGATAGCGCATTGGACTTCAAATTCAAAGGTTCCGGGTTCGAGTCCCGGCGGAGTCG
modifications: chemistry not fully specified
rescue of full-length SCN1A protein expression over dose range (13 to 400 ng suppressor tRNA construct per well, 6-well plate (FIG. 39)): able to rescue full-length SCN1A protein expression over a broad dose range
full-length SCN1A expressed, relative to cells transfected with wild-type SCN1A construct (Flp-In-293, 24 hours post transfection, Western blot band intensity (ImageJ) normalized to wild-type SCN1A): greater than 70%
rescue of full-length SCN1A protein expression (Flp-In-293, SCN1A R1407X-3×FLAG, Western blot, 24 hours post transfection): able to rescue full-length SCN1A protein expression; also recorded: rescued full-length SCN1A protein expression
